# B1: purified porcine DPP-4 (dipeptidyl peptidase-4) (protein)
# chain: DSRRTYTLTDYLKSTFRVKFYTLQWISDHEYLYKQENNILLFNAEYGNSSIFLENSTFDELGYSTNDYSVSPDRQFILFEYNYVKQWRHSYTASYDIYDLNKRQLITEERIPNNTQWITWSPVGHKLAYVWNNDIYVKNEPNLSSQRITWTGKENVIYNGVTDWVYEEEVFSAYSALWWSPNGTFLAYAQFNDTEVPLIEYSFYSDESLQYPKTVRIPYPKAGAENPTVKFFVVDTRTLSPNASVTSYQIVPPASVLIGDHYLCGVTWVTEERISLQWIRRAQNYSIIDICDYDESTGRWISSVARQHIEISTTGWVGRFRPAEPHFTSDGNSFYKIISNEEGYKHICHFQTDKSNCTFITKGAWEVIGIEALTSDYLYYISNEHKGMPGGRNLYRIQLNDYTKVTCLSCELNPERCQYYSASFSNKAKYYQLRCFGPGLPLYTLHSSSSDKELRVLEDNSALDKMLQDVQMPSKKLDVINLHGTKFWYQMILPPHFDKSKKYPLLIEVYAGPCSQKVDTVFRLSWATYLASTENIIVASFDGRGSGYQGDKIMHAINRRLGTFEVEDQIEATRQFSKMGFVDDKRIAIWGWSYGGYVTSMVLGAGSGVFKCGIAVAPVSKWEYYDSVYTERYMGLPTPEDNLDYYRNSTVMSRAENFKQVEYLLIHGTADDNVHFQQSAQLSKALVDAGVDFQTMWYTDEDHGIASNMAHQHIYTHMSHFLKQCFSLP
# Tests used:
# [1] = molecular target: Native pancreatic polypeptide (PP)
protein,measurement,setting,value
B1,"DPP-4 stability (degradation by purified DPP-4, 5 mU, 0-8 h; RP-HPLC and MALDI-ToF)",[1],<2 h
same,"DPP-4 stability (degradation by purified DPP-4, 5 mU, 0-8 h; RP-HPLC and MALDI-ToF)",[P^3]PP,>8 h

# — patent US20260097101
